In assay [1] the target is T1, human CCR8 (human, UniProt P51685 1-355). The assay can be described thus: cell-based or functional assay.
The target in assay [2] is T1, human CCR8. The assay can be described thus: cell-based or functional assay. The source holds these as a separate data set.

Two molecules from patent EP4722248A1 (Shionogi & Co., Ltd, dated 2026) can be followed below.

T1 sequence (P51685 whole entry): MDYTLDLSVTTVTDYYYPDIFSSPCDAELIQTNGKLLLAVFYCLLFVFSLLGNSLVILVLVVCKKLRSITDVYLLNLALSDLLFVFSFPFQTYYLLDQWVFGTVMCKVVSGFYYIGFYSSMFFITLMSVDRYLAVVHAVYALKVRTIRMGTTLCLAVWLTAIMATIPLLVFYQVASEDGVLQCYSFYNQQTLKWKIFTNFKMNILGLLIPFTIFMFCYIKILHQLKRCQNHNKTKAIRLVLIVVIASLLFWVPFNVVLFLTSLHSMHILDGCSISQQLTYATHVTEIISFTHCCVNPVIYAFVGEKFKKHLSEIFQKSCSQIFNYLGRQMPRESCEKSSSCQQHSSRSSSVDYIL

B1: B6-mCD3 (bispecific antibody)
chain: EVQLVESDGGLVQPGRSLKLSCAASGFTFSDYYMAWVRQAPTKGLEWVATITYDVYSTYYRDSVKGRFTISRDNAKSTLYLQMDSLRSEDTATYYCARHGGDGYNSGNWFAYWGQGTLVTVSSGGGGSGGGGSGGGGSDIVLTQSPALAVSLGQRATISCRASQSVSISRYNIMHWYQQKPGQQPKLLIYRASNLASGIPARFSGSGSGTDFTLTINPVQADDIATYYCQQSRESPPTFGGGTKLELKRAANASEVQLVESGGGLVQPGKSLKLSCEASGFTFSGYGMHWVRQAPGRGLESVAYITSSSINIKYADAVKGRFTVSRDNAKNLLFLQMNILKSEDTAMYYCARFDWDKNYWGQGTMVTVSSGGGGSGGGGSGGGGSDIQMTQSPSSLPASLGDRVTINCQASQDISNYLNWYQQKPGKAPKLLIYYTNKLADGVPSRFSGSGSGRDSSFTISSLESEDIGSYYCQQYYNYPWTFGPGTKLEIKHHHHHH
In the case of B1, the “EC50 of cytotoxic activity, luciferase; hCCR8/Fluc/Rat-1 target cells, mouse spleen-derived CD8-positive T cell effectors, antibody 10 pM-10 nM” value in the assay with human CCR8 [1] was 62.3 pM.

B2: B6-CD3-3 (bispecific antibody)
chain: EVQLVESDGGLVQPGRSLKLSCAASGFTFSDYYMAWVRQAPTKGLEWVATITYDVYSTYYRDSVKGRFTISRDNAKSTLYLQMDSLRSEDTATYYCARHGGDGYNSGNWFAYWGQGTLVTVSSGGGGSGGGGSGGGGSDIVLTQSPALAVSLGQRATISCRASQSVSISRYNIMHWYQQKPGQQPKLLIYRASNLASGIPARFSGSGSGTDFTLTINPVQADDIATYYCQQSRESPPTFGGGTKLELKRAANASEVQLVESGGGLVQPGGSLRLSCAASGFTFSTYAMNWVRQAPGKGLEWVGRIRSKYNNYATYYADSVKGRFTISRDDSKNTLYLQMNSLRAEDTAVYYCVRHGNFGDSYVSWFAYWGQGTLVTVSSGKPGSGKPGSGKPGSGKPGSQAVVTQEPSLTVSPGGTVTLTCGSSTGAVTTSNYANWVQQKPGKSPRGLIGGTNKRAPGVPARFSGSLLGGKAALTISGAQPEDEADYYCALWYSNHWVFGGGTKLTVLHHHHHH
Consider B2, for which, in the assay with human CCR8 [2], the “EC50 of killing rate; hCCR8/FLuc/Rat-1 target cells, activated PBMC effectors, E/T 3:1” value turned out to be 1.62 pM.
